Test [1] deals with recombinant trimeric spike protein derived from SARS-CoV-2 (Sino Biological) (SARS-CoV-2, ancestral (Wuhan-Hu-1) …, UniProt P0DTC2). Nature of the test: ELISA.
For test [2], the target named is SARS-CoV-2 spike ectodomain trimer (SARS-CoV-2, ancestral (Wuhan-Hu-1) …, UniProt P0DTC2). Nature of the test: cryo-EM structure.

B1: B8-mIgA1 (antibody, V domains shown)
VH: EVQLVQSGAEVKKPGSSVKVSCKASGGTFSNYGISWVRQAPGQGLEWMGRILPTFGTANSAQKFQGRVTITADESTGTAYMELRSLRSEDTAVYYCAKEGLAFLGYGMDVWGQGTTVTVSS
VL: EIVLTQSPGTLSLSPGERATLSCRASQSVSSYLAWYQQKPGQAPRLLIYDASNRATGIPARFIGSGSGTDFTLTISSLEPEDFAVYFCQQRSNWPLTFGGGTKVEIK
On to B1, for which the binding result in test [1] is listed as “binds”.

B2: B8-dIgA2 (antibody, V domains shown)
VH: B1 VH
VL: B1 VL
B2: the binding result in test [1] is on record as “binds”.

B3: B8-mIgA2 (antibody, V domains shown)
VH: B1 VH
VL: B1 VL
With B3, in test [1], the binding result was “binds”.

B4: B8 Fab (Fab, V domains shown)
VH: B1 VH
VL: B1 VL
Turning to B4, the binding result in test [2] is “binds”.

B5: B8-IgG1 (antibody, V domains shown)
VH: B1 VH
VL: B1 VL
Consider B5, for which, in test [1], the binding result is given as “binds”.

B6: B8-dIgA1 (antibody, V domains shown)
VH: B1 VH
VL: B1 VL
Regarding B6, the binding result in test [1] is listed as “binds”.
